Test results as given in paper PMC10397247.

Key:
4H2518-bA = biological target: T1, 4H2518-bA; test: two-hybrid library CCNG1;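 also: natural log of median RNA to DNA barcode read ratio; higher means stronger binding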
T1 chain: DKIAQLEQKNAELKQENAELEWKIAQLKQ

4H2233-bA = biological target: T2, 4H2233-bA; test: two-hybrid library CCNG1;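 also: natural log of median RNA to DNA barcode read ratio; higher means stronger binding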
T2 chain: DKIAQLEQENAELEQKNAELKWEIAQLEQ

4H3297-bA = biological target: T3, 4H3297-bA; test: two-hybrid library CCNG1;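 also: natural log of median RNA to DNA barcode read ratio; higher means stronger binding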
T3 chain: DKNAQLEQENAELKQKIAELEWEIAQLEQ

4H349-bA = biological target: T4, 4H349-bA; test: two-hybrid library CCNG1;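 also: natural log of median RNA to DNA barcode read ratio; higher means stronger binding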
T4 chain: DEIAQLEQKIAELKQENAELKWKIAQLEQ

4H264-bA = biological target: T5, 4H264-bA; test: two-hybrid library CCNG1;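 also: natural log of median RNA to DNA barcode read ratio; higher means stronger binding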
T5 chain: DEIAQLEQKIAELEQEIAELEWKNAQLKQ

4H2585-bA = biological target: T6, 4H2585-bA; test: two-hybrid library CCNG1;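 also: natural log of median RNA to DNA barcode read ratio; higher means stronger binding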
T6 chain: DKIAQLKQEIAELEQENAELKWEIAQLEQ

4H3381-bA = biological target: T7, 4H3381-bA; test: two-hybrid library CCNG1
T7 chain: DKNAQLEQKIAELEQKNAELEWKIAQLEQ

4H730-bA = biological target: T8, 4H730-bA; test: two-hybrid library CCNG1
T8 chain: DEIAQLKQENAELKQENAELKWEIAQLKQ

4H3364-bA = biological target: T9, 4H3364-bA; test: two-hybrid library CCNG1
T9 chain: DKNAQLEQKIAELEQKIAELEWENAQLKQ

4H2931-bA = biological target: T10, 4H2931-bA; test: two-hybrid library CCNG1
T10 chain: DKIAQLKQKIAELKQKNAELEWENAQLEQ

4H56-bA = biological target: T11, 4H56-bA; test: two-hybrid library CCNG1
T11 chain: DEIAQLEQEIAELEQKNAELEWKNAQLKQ

4H932-bA = biological target: T12, 4H932-bA; test: two-hybrid library CCNG1
T12 chain: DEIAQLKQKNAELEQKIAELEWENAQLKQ

4H796-bA = biological target: T13, 4H796-bA; test: two-hybrid library CCNG1
T13 chain: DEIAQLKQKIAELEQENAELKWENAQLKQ

4H2444-bA = biological target: T14, 4H2444-bA; test: two-hybrid library CCNG1
T14 chain: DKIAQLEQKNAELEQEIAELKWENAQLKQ

4H949-bA = biological target: T15, 4H949-bA; test: two-hybrid library CCNG1
T15 chain: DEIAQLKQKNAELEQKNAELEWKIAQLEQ

4H2253-bA = biological target: T16, 4H2253-bA; test: two-hybrid library CCNG1
T16 chain: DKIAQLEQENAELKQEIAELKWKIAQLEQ

4H2859-bA = biological target: T17, 4H2859-bA; test: two-hybrid library CCNG1
T17 chain: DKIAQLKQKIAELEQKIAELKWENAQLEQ

4H235-bA = biological target: T18, 4H235-bA; test: two-hybrid library CCNG1
T18 chain: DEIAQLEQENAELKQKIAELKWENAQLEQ

4H2760-bA = biological target: T19, 4H2760-bA; test: two-hybrid library CCNG1
T19 chain: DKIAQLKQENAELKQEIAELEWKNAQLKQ

4H3041-bA = biological target: T20, 4H3041-bA; test: two-hybrid library CCNG1
T20 chain: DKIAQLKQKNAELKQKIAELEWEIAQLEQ

4H591-bH = biological target: T21, 4H591-bH; test: two-hybrid library CCNG1
T21 chain: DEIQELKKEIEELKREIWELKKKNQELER

4H3277-bH = biological target: T22, 4H3277-bH; test: two-hybrid library CCNG1
T22 chain: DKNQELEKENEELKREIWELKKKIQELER

4H3497-bH = biological target: T23, 4H3497-bH; test: two-hybrid library CCNG1
T23 chain: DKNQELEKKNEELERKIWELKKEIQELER

4H3185-bN = biological target: T24, 4H3185-bN; test: two-hybrid library CCNG1
T24 chain: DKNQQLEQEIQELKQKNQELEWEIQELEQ

4H1373-bH = biological target: T25, 4H1373-bH; test: two-hybrid library CCNG1
T25 chain: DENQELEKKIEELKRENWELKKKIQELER

4H3817-bH = biological target: T26, 4H3817-bH; test: two-hybrid library CCNG1
T26 chain: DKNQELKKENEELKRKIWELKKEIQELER

4H3926-bH = biological target: T27, 4H3926-bH; test: two-hybrid library CCNG1
T27 chain: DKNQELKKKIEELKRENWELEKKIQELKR

4H1985-bH = biological target: T28, 4H1985-bH; test: two-hybrid library CCNG1
T28 chain: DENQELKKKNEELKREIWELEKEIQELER

4H3974-bH = biological target: T29, 4H3974-bH; test: two-hybrid library CCNG1
T29 chain: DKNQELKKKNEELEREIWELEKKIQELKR

4H3298-bH = biological target: T30, 4H3298-bH; test: two-hybrid library CCNG1
T30 chain: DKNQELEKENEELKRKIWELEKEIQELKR

4H1449-bH = biological target: T31, 4H1449-bH; test: two-hybrid library CCNG1
T31 chain: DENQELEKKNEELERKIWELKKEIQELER

4H1899-bH = biological target: T32, 4H1899-bH; test: two-hybrid library CCNG1
T32 chain: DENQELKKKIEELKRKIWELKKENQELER

4H1544-bH = biological target: T33, 4H1544-bH; test: two-hybrid library CCNG1
T33 chain: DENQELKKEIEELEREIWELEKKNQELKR

4H3162-bH = biological target: T34, 4H3162-bH; test: two-hybrid library CCNG1
T34 chain: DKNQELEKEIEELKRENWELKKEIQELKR

4H3175-bH = biological target: T35, 4H3175-bH; test: two-hybrid library CCNG1
T35 chain: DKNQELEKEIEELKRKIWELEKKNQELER

4H850-bH = biological target: T36, 4H850-bH; test: two-hybrid library CCNG1
T36 chain: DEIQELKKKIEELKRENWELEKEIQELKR

4H3462-bH = biological target: T37, 4H3462-bH; test: two-hybrid library CCNG1
T37 chain: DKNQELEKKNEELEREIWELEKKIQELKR

4H1348-bH = biological target: T38, 4H1348-bH; test: two-hybrid library CCNG1
T38 chain: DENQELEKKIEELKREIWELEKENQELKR

4H906-bH = biological target: T39, 4H906-bH; test: two-hybrid library CCNG1
T39 chain: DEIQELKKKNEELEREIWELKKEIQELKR

4H3628-bH = biological target: T40, 4H3628-bH; test: two-hybrid library CCNG1
T40 chain: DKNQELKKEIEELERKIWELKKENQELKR

4H3858-bH = biological target: T41, 4H3858-bH; test: two-hybrid library CCNG1
T41 chain: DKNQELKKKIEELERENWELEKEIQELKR

4H3613-bH = biological target: T42, 4H3613-bH; test: two-hybrid library CCNG1
T42 chain: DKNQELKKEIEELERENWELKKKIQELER

4H626-bH = biological target: T43, 4H626-bH; test: two-hybrid library CCNG1
T43 chain: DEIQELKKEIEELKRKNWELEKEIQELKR

4H570-bH = biological target: T44, 4H570-bH; test: two-hybrid library CCNG1
T44 chain: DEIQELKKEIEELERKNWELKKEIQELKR

4H1710-bH = biological target: T45, 4H1710-bH; test: two-hybrid library CCNG1
T45 chain: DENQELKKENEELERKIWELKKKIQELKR

4H2600-AA = biological target: T46, 4H2600-AA; test: two-hybrid library CCmax; conditions: mean of both orientations
T46 chain: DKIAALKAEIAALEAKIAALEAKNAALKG

GCN2_T = test: two-hybrid library CCmax; conditions: mean of both orientations
4H355-AA = biological target: T47, 4H355-AA; test: two-hybrid library CCmax; conditions: mean of both orientations
T47 chain: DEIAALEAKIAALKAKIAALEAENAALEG

4H140-AA = biological target: T48, 4H140-AA; test: two-hybrid library CCmax
T48 chain: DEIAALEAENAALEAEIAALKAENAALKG

4H3365-AA = biological target: T49, 4H3365-AA; test: two-hybrid library CCmax; conditions: mean of both orientations
T49 chain: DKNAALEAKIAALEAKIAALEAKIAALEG

4H2721-AA = biological target: T50, 4H2721-AA; test: two-hybrid library CCmax; conditions: mean of both orientations
T50 chain: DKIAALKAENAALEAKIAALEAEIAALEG

4H3705-AA = biological target: T51, 4H3705-AA; test: two-hybrid library CCmax; conditions: mean of both orientations
T51 chain: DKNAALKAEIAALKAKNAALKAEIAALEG

4H3020-AA = biological target: T52, 4H3020-AA; test: two-hybrid library CCmax; conditions: mean of both orientations
T52 chain: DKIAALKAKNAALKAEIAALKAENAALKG

4H3651-AA = biological target: T53, 4H3651-AA; test: two-hybrid library CCmax; conditions: mean of both orientations
T53 chain: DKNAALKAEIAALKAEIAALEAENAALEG

4H486-AA = biological target: T54, 4H486-AA; test: two-hybrid library CCmax; conditions: mean of both orientations
T54 chain: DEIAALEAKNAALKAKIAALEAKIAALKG

4H3782-AA = biological target: T55, 4H3782-AA; test: two-hybrid library CCmax; conditions: mean of both orientations
T55 chain: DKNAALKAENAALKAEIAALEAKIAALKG

4H2898-AA = biological target: T56, 4H2898-AA; test: two-hybrid library CCmax; conditions: mean of both orientations
T56 chain: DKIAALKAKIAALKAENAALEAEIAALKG

4H_GCN4 = test: two-hybrid library CCmax
Chain of 4H_GCN4 (chain, as listed by the source): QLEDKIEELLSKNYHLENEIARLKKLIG

4H535-AA = biological target: T57, 4H535-AA; test: two-hybrid library CCmax; conditions: mean of both orientations
T57 chain: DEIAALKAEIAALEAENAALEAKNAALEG

4H58-AA = biological target: T58, 4H58-AA; test: two-hybrid library CCmax; conditions: mean of both orientations
T58 chain: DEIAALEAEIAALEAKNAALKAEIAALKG

4H1802-AA = biological target: T59, 4H1802-AA; test: two-hybrid library CCmax; conditions: mean of both orientations
T59 chain: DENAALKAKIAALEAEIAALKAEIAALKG

4H_BCR = biological target: T60, 4H_BCR; test: two-hybrid library CCmax; conditions: mean of both orientations
T60 chain: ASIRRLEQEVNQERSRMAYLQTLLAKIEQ

4H465-AA = biological target: T61, 4H465-AA; test: two-hybrid library CCmax; conditions: mean of both orientations
T61 chain: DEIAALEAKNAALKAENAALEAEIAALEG

4H2750-AA = biological target: T62, 4H2750-AA; test: two-hybrid library CCmax; conditions: mean of both orientations
T62 chain: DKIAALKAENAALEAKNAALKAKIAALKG

4H_APH = biological target: T63, 4H_APH; test: two-hybrid library CCmax; conditions: mean of both orientations
T63 chain: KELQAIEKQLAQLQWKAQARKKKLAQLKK

4H895-AA = biological target: T64, 4H895-AA; test: two-hybrid library CCmax; conditions: mean of both orientations
T64 chain: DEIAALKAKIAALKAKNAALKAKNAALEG

DKIAQLEQENAELEQKNAELKWEIAQLEQ [4H2233-bA]
interaction score (4H2518-bA): 2.31
interaction score (4H2233-bA): -0.789
interaction score (4H3297-bA): -0.632
interaction score (4H349-bA): -1.43
interaction score (4H264-bA): -1.45
interaction score (4H2585-bA): -1.22
interaction score (4H3381-bA): -0.976
interaction score (4H730-bA): -1.24
interaction score (4H3364-bA): -0.979
interaction score (4H2931-bA): -1.08
interaction score (4H56-bA): -1.39
interaction score (4H932-bA): -1.01
interaction score (4H796-bA): -1.42
interaction score (4H2444-bA): -1.1
interaction score (4H949-bA): -1
interaction score (4H2253-bA): -1.28
interaction score (4H2859-bA): -0.945
interaction score (4H235-bA): -1.01
interaction score (4H2760-bA): -0.641
interaction score (4H3041-bA): 0.018

DENQELEKKIEELKREIWELEKENQELKR [4H1348-bH]
interaction score (4H591-bH): -1.39
interaction score (4H3277-bH): -0.13
interaction score (4H3497-bH): 0.0523
interaction score (4H3185-bN): -1.2
interaction score (4H1373-bH): 0.103
interaction score (4H3817-bH): 0.205
interaction score (4H3926-bH): 0.857
interaction score (4H1985-bH): 0.722
interaction score (4H3974-bH): 1.36
interaction score (4H3298-bH): 0.0904
interaction score (4H1449-bH): 1.19
interaction score (4H1899-bH): 0.883
interaction score (4H1544-bH): 1.3
interaction score (4H3162-bH): 0.415
interaction score (4H3175-bH): 0.435
interaction score (4H850-bH): 0.659
interaction score (4H3462-bH): 0.558
interaction score (4H1348-bH): 0.814
interaction score (4H906-bH): -0.14
interaction score (4H3628-bH): 1.42
interaction score (4H3858-bH): 0.0862
interaction score (4H3613-bH): -1.69
interaction score (4H626-bH): -1.01
interaction score (4H570-bH): -0.807
interaction score (4H1710-bH): -0.0273

DEIAALEAENAALEAEIAALKAENAALKG [4H140-AA]
interaction score (4H2600-AA): -1.83
interaction score (GCN2_T): -1.08
interaction score (4H355-AA): -1.06
interaction score (4H140-AA): 1.28
interaction score (4H3365-AA): -1.08
interaction score (4H2721-AA): -1.25
interaction score (4H3705-AA): 1.36
interaction score (4H3020-AA): 2.23
interaction score (4H3651-AA): -1.02
interaction score (4H486-AA): -0.379
interaction score (4H3782-AA): -0.5
interaction score (4H2898-AA): -0.325
interaction score (4H_GCN4): -0.95
interaction score (4H535-AA): -1.56
interaction score (4H58-AA): 1.01
interaction score (4H1802-AA): -1.67
interaction score (4H_BCR): -1.18
interaction score (4H465-AA): -1.51
interaction score (4H2750-AA): -0.883
interaction score (4H_APH): -2.79
interaction score (4H895-AA): -1.44
